Two sequences from publication PMC5924515 can be followed below.

Series [1] deals with T1, VapB15 (Synechocystis sp. PCC 6803) (UniProt P74009).
T1 sequence: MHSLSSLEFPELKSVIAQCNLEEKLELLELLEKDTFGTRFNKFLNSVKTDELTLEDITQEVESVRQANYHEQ
The series can be described thus: EMSA. Particulars: 100 mM Tris-HCl pH 8.0, 100 mM NaCl, 1 mM DTT, 10% glycerol, 0.1 mg/mL sonicated salmon sperm DNA, 25 C, 30 min; 5% native PAGE in 0.5x TBE.

Series [2] deals with T2, VapB15;VapC15-His6 (Synechocystis sp. PCC 6803;Synechocystis sp. PCC 6803) (UniProt P74009+P74010).
T2 sequence 1: T1 sequence
T2 sequence 2: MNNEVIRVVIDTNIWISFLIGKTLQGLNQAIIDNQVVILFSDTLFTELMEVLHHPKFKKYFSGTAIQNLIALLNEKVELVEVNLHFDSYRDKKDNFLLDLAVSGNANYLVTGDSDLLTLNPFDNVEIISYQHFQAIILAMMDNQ
Nature of the series: EMSA. (In EMSA bound probe runs differently from free probe, usually more slowly.)

Regarding “CAAAGCTCTGGCAACCCTGCAGAACTTTAAACCTATCCCCCTAGGCTTGGGGCCAGGGGACTTTTCAAGCAACTCCTTGGGGCACTATTTGGAAATGTGATAATGGGAGTTATAATTCGCCTCTCGGAGAAAAGTTGAAATGCACTCATTGTCATCACTGGAATTTC (double strand) [P1 (PvapBC15 promoter, PS1 and PS2)]”, the figures for the binding result in series [1] and in series [2] were “binds” and “binds more weakly”, respectively.
Regarding “GAAATTCCAGTGATGACAATGAGTGCATTTCAACTTTTCTCCGAGAGGCGAATTATAACTCCCATTATCACATTTCCAAATAGTGCCCCAAGGAGTTGCTTGAAAAGTCCCC (double strand) [P2 (3' half of PS1 and whole PS2)]”, the binding result in series [1] was “no binding”.
